Results reported in doi:10.1101/2024.01.05.574393.

B1: FLNCd24 (domain 24 of filamin C, residues 2630-2724), wild type (domain or fragment)
chain: GSKFSSDASKVVTRGPGLSQAFVGQKNSFTVDCSKAGTNMMMVGVHGPKTPCEEVYVKHMGNRVYNVTYTVKEKGDYILIVKWGDESVPGSPFKVKV
B2: FLNCd24 Y2683E (phospho-mimic, residues 2630-2724) (domain or fragment)
chain: GSKFSSDASKVVTRGPGLSQAFVGQKNSFTVDCSKAGTNMMMVGVHGPKTPCEEVEVKHMGNRVYNVTYTVKEKGDYILIVKWGDESVPGSPFKVKV
B3: FLNCd24 T2677D (phospho-mimic, residues 2630-2724) (domain or fragment)
chain: GSKFSSDASKVVTRGPGLSQAFVGQKNSFTVDCSKAGTNMMMVGVHGPKDPCEEVYVKHMGNRVYNVTYTVKEKGDYILIVKWGDESVPGSPFKVKV

Biological target: HSPB7ACD (α-crystallin domain, residues 78-162 of isoform 2) (human)
Experiment: native MS

Compared with B1, B2 is 1.8-fold lower in Kd: 3.9 nM for the first, 2.2 nM for the second. The second binds more tightly here.

For B3, the Kd was 14.1 nM.
